Assay results: patent US20120101037A1 (Hoffmann-La Roche, published 2012)
Non-standard residues stand in square brackets, D forms with d. Groups on a side chain read outwards from the residue. Primed or numbered codes have the meaning given here. *: point of attachment. dPhe(3,5-F2) = N[C@H](Cc1cc(F)cc(F)c1)C(=O)O; dPhe(3-Cl) = N[C@H](Cc1cccc(Cl)c1)C(=O)O; dPhe(4-Cl) = N[C@H](Cc1ccc(Cl)cc1)C(=O)O; dPhe(2-Cl) = N[C@H](Cc1ccccc1Cl)C(=O)O; dPhe(3-F) = N[C@H](Cc1cccc(F)c1)C(=O)O; Desaminotyrosyl = O=C(CCc1ccc(O)cc1)*; dPhe(2-F) = N[C@H](Cc1ccccc1F)C(=O)O; dPhe(3,4,5-F3)′ = not defined here; Hydrocinnamoyl = O=C(CCc1ccccc1)*; SSA = succinimidyl succinamide

B1: Ac-(D)-3-Pya-Ala-Glu-Gly-Thr-Phe-Ile-Ser-Asp-Tyr-Ser-Ile-Ala-Met-Asp-Lys-Ile-His-Gln-Gln-Asp-Phe-Val-Asn-Trp-Leu-Leu-Ala-Gln-Lys-NH2 (peptide)
peptide: AAEGTFISDYSIAMDKIHQQDFVNWLLAQK
modifications: position 1 is acetylated D-3-pyridylalanine (Ac-(D)3Pya); C-terminal amide (NH2)

Molecular target: T1, human GIPR (glucose-dependent insulinotropic polypeptide receptor) (human, UniProt P48546 22-466)
T1 sequence (looked up): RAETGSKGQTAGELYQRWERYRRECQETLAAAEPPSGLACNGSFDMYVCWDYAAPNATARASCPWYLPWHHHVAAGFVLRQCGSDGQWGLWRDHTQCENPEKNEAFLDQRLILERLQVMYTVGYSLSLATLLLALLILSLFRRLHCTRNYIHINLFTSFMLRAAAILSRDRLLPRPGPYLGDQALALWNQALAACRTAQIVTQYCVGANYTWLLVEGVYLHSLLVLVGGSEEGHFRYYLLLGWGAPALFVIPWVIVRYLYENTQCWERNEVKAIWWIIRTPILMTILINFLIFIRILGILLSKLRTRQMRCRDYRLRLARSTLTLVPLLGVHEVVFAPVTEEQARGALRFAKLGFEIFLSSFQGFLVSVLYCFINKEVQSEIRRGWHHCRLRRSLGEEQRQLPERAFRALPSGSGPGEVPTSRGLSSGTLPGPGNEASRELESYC
Assay: cell-based or functional assay

Ac-YAEGTFISDYSIAMDKIHQQDFVNWLLAQK-NH2 (also: 1:2 TFA salt) was tested. Which “% activation of cAMP” value did it give?
The value was 100%.

How did the “% activation of cAMP” value turn out when Ac-[dW]AEGTFISDYSIAMDKIHQQDFVNWLLAQK-NH2 (also: 1:2 TFA salt) was run?
Its value is 102%.

What about the “EC50 (nMol), cAMP” value of the same binder?
Its value is 0.1 nmol.

Which results are given for Ac-[dPhe(3,5-F2)]AEGTFISDYSIAMDKIHQQDFVNWLLAQK-NH2 (also: 1:2 TFA salt)?
% activation of cAMP: 99.6%; EC50 (nMol), cAMP: 0.003 nmol

Which “% activation of cAMP” value does the source give for Ac-[dPhe(3-Cl)]AEGTFISDYSIAMDKIHQQDFVNWLLAQK-NH2 (also: 1:2 TFA salt) here?
The value was 106%.

And the “EC50 (nMol), cAMP” value?
Its value is 0.072 nmol.

Which results are given for [Desaminotyrosyl]AEGTFISDYSIAMDKIHQQDFVNWLLAQK-NH2 (also: 1:2 TFA salt)?
% activation of cAMP: 103%; EC50 (nMol), cAMP: 0.095 nmol

Which “% activation of cAMP” value does the source give for Ac-[dPhe(3,4,5-F3)′]AEGTFISDYSIAMDKIHQQDFVNWLLAQK-NH2 (also: 1:2 TFA salt) here?
Its value is 100%.

What about the “EC50 (nMol), cAMP” value of the same binder?
Its value is 0.104 nmol.

How did the “% activation of cAMP” value turn out when Ac-[dPhe(2-F)]AEGTFISDYSIAMDKIHQQDFVNWLLAQK-NH2 (also: 1:2 TFA salt) was run?
The value was 99.8%.

And the “EC50 (nMol), cAMP” value?
Its value is 0.0075 nmol.

Which “% activation of cAMP” value does the source give for Ac-[dY]AEGTFISDYSIAMDAIHQQDFVNWLLAQK-NH2 (also: 1:1 TFA salt) here?
The value was 100%.

And the “EC50 (nMol), cAMP” value?
The value was 0.0005 nmol.

Ac-[dY]AEGTFISDYSIAMDKIHQQDFVNWLLAQK-NH2 (also: 1:2 TFA salt) was tested. Which “% activation of cAMP” value did it give?
Its value is 102%.

What about the “EC50 (nMol), cAMP” value of the same binder?
Its value is 0.0007 nmol.

Which results are given for Ac-[dPhe(4-Cl)]AEGTFISDYSIAMDKIHQQDFVNWLLAQK-NH2 (also: 1:2 TFA salt)?
% activation of cAMP: 106%; EC50 (nMol), cAMP: 0.025 nmol

For [Hydrocinnamoyl]AEGTFISDYSIAMDKIHQQDFVNWLLAQK-NH2 (also: 1:2 TFA salt), which “% activation of cAMP” value is on record?
Its value is 101%.

And the “EC50 (nMol), cAMP” value?
The value was 0.797 nmol.

With Ac-[dPhe(2-Cl)]AEGTFISDYSIAMDKIHQQDFVNWLLAQK-NH2 (also: 1:2 TFA salt) as the binder, how does the “% activation of cAMP” value read?
Its value is 104%.

And the “EC50 (nMol), cAMP” value?
Its value is 0.121 nmol.

For B1, which “% activation of cAMP” value is on record?
The value was 102%.

What about the “EC50 (nMol), cAMP” value of the same binder?
Its value is 0.08 nmol.

What does the source list for Ac-[dY]AEGTFISDYSIAMDAIHQQDFVNWLLAQK([SSA-PEGm 20,000])-NH2?
% activation of cAMP: 102%; EC50 (nMol), cAMP: 0.0049 nmol

How did the “% activation of cAMP” value turn out when Ac-[dY]AEGTFISDYSIAMDAIHQQDFVNWLLAQK([SSA-PEGm 30,000])-NH2 was run?
The value was 101%.

And the “EC50 (nMol), cAMP” value?
The value was 0.0017 nmol.

For Ac-[dY]AEGTFISDYSIAMDAIHQQDFVNWLLAQK([SSA-PEGm 12,000])-NH2, which “% activation of cAMP” value is on record?
The value was 100%.

And the “EC50 (nMol), cAMP” value?
Its value is 0.0022 nmol.

What does the source list for Ac-[dF]AEGTFISDYSIAMDKIHQQDFVNWLLAQK-NH2 (also: 1:2 TFA salt)?
% activation of cAMP: 102%; EC50 (nMol), cAMP: 0.685 nmol

For Ac-[dPhe(3-F)]AEGTFISDYSIAMDKIHQQDFVNWLLAQK-NH2 (also: 1:2 TFA salt), which “% activation of cAMP” value is on record?
Its value is 98%.

What about the “EC50 (nMol), cAMP” value of the same binder?
Its value is 0.058 nmol.
